Like-named read-outs stand apart in the source and are kept apart here.

Test [1] concerns the target porcine CD80 on the porcine CD80-expressing B-cell lymphoma cell line LCL13271-5E4 (porcine).
Test [2] shares this target. The test is described as follows: cell-based or functional assay.
For test [3] the target is unchanged. Description: flow cytometry on LCL13271-5E4 cells, MFI against concentration of biotinylated fusion toxin, non-linear least-squares fit.

For the substance “DT390-bi-pCTLA-4-Non-N-Gly-6xHis (bi-non-N-glycosylated soluble porcine CTLA-4 fusion toxin)”, in test [1], the Kd was found to be 4.7 nM.

In test [2], “DT390-pCTLA-4-Gly-6xHis (single glycosylated soluble porcine CTLA-4 fusion toxin)” registered a protein synthesis inhibition (3H-leucine incorporation) in LCL13271-5E4 cells of 0.67. The substance further gave a Kd in test [3] of 17.3 nM.

In test [1], “DT390-pCTLA4-Non-N-Gly-6xHis (single non-N-glycosylated soluble porcine CTLA-4 fusion toxin)” registered a Kd of 2 nM. Moreover, the protein synthesis inhibition (3H-leucine incorporation) in LCL13271-5E4 cells in test [2] came out at 0.33.

Source of the values: US20150118260A1.
